Assay [1] concerns the target EWEnH fusion protein (EWE fused to FH CCP2-4) (human). Nature of the assay: BLI; kinetics: EWE, EWEµH or EWEnH held on anti-penta his (His1K) biosensors, dilution series of C3b or iC3b; 20 mM HEPES pH 7.5, 150 mM NaCl, 30°C; 1:1 model.
Assay [2] deals with EWEµH fusion protein (EWE fused to FH CCP2-4 and CCP19-20) (human). The assay is described as above.

Drawing on paper PMC9352930, this text covers Kd for two substances.

pKd: −log10 of the molar value.

With “C3b (proteolytic fragment of complement component C3) (from UniProt P01024 749-1663; P01024 749-1663) (domain or fragment)”, the values for the pKd in assay [1] and in assay [2] were 8.05 and 9.40, respectively.
Regarding iC3b (domain or fragment), the pKd (in general, the Kd on a negative log10 scale, so that one unit is a factor of ten) in assay [1] is 8.15; in assay [2], 8.54.
